Measured values reported in paper PMC11251093 (iScience, 2024).

Biological target: SARS-CoV S-6P (SARS-CoV, strain , UniProt P59594, stabilised)
Assay: SPR

B1: 6D6 (antibody, V domains shown)
VH: EVQLQQSGAELVKPGASVKLSCTTSGFNIIDTYMHWVKQRPEEGLEWIGGIDPVNGNSEYDPKFQDKATITADTSSNTAYLHLSRLTSEDTAVYYCASAHYYGSSSSFPYWGQGTDLVTVS
VL: DIVMTQSQKFMSTSVGDRVSVTCKASQNVGTHVAWYQQKPGQSPKALIYSASYRYSGVPDRFTGSGVGTDFTLTITNVQSEDLAEYFCQQYNSYFTFGSGTKLEIK
  binding result: binds
